Laboratory results: patent US20230190801A1

Biological target: SLAMF7 (human) (UniProt Q9NQ25)
Assay: cell-based or functional assay

B1: elotuzumab (antibody, INN chains, looked up, V domains shown)
VH: EVQLVESGGGLVQPGGSLRLSCAASGFDFSRYWMSWVRQAPGKGLEWIGEINPDSSTINYAPSLKDKFIISRDNAKNSLYLQMNSLRAEDTAVYYCARPDGNYWYFDVWGQGTLVTVSS
VL: DIQMTQSPSSLSASVGDRVTITCKASQDVGIAVAWYQQKPGKVPKLLIYWASTRHTGVPDRFSGSGSGTDFTLTISSLQPEDVATYYCQQYSSYPYTFGQGTKVEIKR
g-NK cell-mediated cytotoxicity against elotuzumab-treated MM cell lines, correlation with SLAMF7 expression: 0.96 R^2
